Results reported in article PMC10163058.

Tests used:
[1] = target: His6-tagged recombinant PirB (Abcam #ab276923) (mouse) (UniProt P97484); assay: atomic force microscopy (single-molecule force spectroscopy); His6-PirB held on Ni2+-NTA gold-coated model surfaces; AFM tips functionalised with T3SA- virions or σ3 through a PEG linker; virus buffer; koff from Bell-Evans fit of dynamic force spectroscopy, kon from binding probability against contact time (pseudo-first-order), KD calculated from both
[2] = target: paired immunoglobulin-like receptor B (PirB), expressed on CHO cells (mouse) (UniProt P97484)
[3] = target: paired immunoglobulin-like receptor B (PirB), expressed on CHO cells (mouse) (UniProt P97484); remark: listed apart in the source

| Substance | Kd [1] [nM] | koff [1] [s⁻¹] | kon [1] [M⁻¹ s⁻¹] | tyrosine phosphorylation of immunoprecipitated myc-tagged PirB in CHO cells after T3SA+ adsorption (immunoblot with pTyr-specific mAb cocktail) [2] [fold] | decrease in infection of primary murine cortical neurons (endogenous PirB) by T3SA+ (100 PFU/cell) after incubation with 5 μg/ml PirB-specific mAb 6C1, IFA [3] [%] |
| --- | --- | --- | --- | --- | --- |
| reovirus strain T3SA- virions (from UniProt P03528 1-455; P07939 1-365) (complex) | 1.94 | 0.2 | 1.03e+08 | – | – |
| reovirus strain T3SA+ virions (from UniProt P03528 1-455; P07939 1-365) (complex) | – | – | – | > 3 | 50 |
